Data published in paper doi:10.1101/595835, “An oligomeric state-dependent switch in FICD regulates AMPylation and deAMPylation of the chaperone BiP” (bioRxiv, 2019).
Positions count from the first letter of the chain named. Names may count otherwise. One block for each binder: values may come before it.

How the values were obtained:
[1] = biological target: T1, biotinylated AviTag-haBiP^V461F(19-654), AMPylated (Chinese hamster, UniProt G3I8R9 19-654, V461F, AMP on Thr518 (AMPylation); biotin on the AviTag); assay: BLI; biotinylated AMPylated or unmodified BiP immobilised on streptavidin biosensors; FICD His363Ala variants in solution at 250 nM; HKM plus 0.05% Triton X-100, 30 °C (Figure S2G); conditions: both partners purified
T1 construct: Chinese hamster BiP (haBiP), aa 19-654; also called BiP-AMP; AMPylated BiP; not shown: GST, N-terminal, cleaved; AviTag, N-terminal, kept
T1 sequence (G3I8R9 19-654 V461F): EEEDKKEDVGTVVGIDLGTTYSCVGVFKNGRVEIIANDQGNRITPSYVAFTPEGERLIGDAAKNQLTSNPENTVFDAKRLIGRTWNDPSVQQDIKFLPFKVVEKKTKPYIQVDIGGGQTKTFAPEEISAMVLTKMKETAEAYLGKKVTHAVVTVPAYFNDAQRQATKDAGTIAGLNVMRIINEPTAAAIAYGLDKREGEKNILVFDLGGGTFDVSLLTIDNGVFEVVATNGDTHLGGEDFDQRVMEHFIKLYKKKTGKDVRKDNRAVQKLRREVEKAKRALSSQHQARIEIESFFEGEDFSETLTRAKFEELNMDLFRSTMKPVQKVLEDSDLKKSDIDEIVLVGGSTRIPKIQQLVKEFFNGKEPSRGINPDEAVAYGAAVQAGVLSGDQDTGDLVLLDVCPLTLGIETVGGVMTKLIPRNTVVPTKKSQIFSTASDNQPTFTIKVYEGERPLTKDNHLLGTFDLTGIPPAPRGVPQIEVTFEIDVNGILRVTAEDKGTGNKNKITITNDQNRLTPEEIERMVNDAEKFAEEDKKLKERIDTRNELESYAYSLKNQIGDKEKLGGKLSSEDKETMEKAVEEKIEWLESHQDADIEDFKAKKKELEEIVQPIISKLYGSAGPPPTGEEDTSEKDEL

[2] = biological target: T2, biotinylated AviTag-FICD(104-458)^H363A (human, UniProt Q9BVA6 104-458, H363A, biotin on the AviTag); assay: BLI; dimer dissociation: biotinylated AviTag-FICD(104-458)^H363A (3 nM) pre-incubated with FICD^H363A (300 nM), loaded on streptavidin biosensors; dissociation by infinite dilution into HKTx buffer ± nucleotide at 5 mM, 30 °C; mono-exponential fit; conditions: both partners purified
T2 construct: human FICD (HYPE), aa 104-458; Expression, purification and biotinylation of this construct are not described; also called N-terminally biotinylated FICD^H363A; UK 2422; not shown: AviTag, N-terminal, kept
T2 sequence (looked up): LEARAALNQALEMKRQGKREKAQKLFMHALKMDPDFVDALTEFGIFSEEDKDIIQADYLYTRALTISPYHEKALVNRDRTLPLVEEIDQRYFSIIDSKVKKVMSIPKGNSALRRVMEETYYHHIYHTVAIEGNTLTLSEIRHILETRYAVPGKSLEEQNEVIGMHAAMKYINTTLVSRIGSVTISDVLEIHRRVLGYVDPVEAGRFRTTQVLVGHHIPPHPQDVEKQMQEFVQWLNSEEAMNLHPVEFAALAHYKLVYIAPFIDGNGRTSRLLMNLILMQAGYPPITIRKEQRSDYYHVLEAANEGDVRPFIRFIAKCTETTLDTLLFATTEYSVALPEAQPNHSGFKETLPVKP

[3] = biological target: T3, biotinylated AviTag-haBiP(28-635)^T229A-V461F (Chinese hamster, UniProt G3I8R9 28-635, T229A | V461F, biotin on the AviTag); assay: BLI; biotinylated BiP^T229A-V461F(28-635) immobilised on streptavidin biosensors and pre-saturated with ATP (2 mM); FICD His363Ala variants at 250 nM, without or with nucleotide (ATP 8 mM, ADP 2 mM); HKM plus 0.05% Triton X-100, 30 °C; conditions: both partners purified
T3 construct: Chinese hamster BiP (haBiP), aa 28-635; the assay tells the nucleotide state; also called BiP^T229A-V461F:Apo; BiP:ATP; not shown: GST, N-terminal, cleaved; AviTag, N-terminal, kept
T3 sequence (G3I8R9 28-635 T229A/V461F): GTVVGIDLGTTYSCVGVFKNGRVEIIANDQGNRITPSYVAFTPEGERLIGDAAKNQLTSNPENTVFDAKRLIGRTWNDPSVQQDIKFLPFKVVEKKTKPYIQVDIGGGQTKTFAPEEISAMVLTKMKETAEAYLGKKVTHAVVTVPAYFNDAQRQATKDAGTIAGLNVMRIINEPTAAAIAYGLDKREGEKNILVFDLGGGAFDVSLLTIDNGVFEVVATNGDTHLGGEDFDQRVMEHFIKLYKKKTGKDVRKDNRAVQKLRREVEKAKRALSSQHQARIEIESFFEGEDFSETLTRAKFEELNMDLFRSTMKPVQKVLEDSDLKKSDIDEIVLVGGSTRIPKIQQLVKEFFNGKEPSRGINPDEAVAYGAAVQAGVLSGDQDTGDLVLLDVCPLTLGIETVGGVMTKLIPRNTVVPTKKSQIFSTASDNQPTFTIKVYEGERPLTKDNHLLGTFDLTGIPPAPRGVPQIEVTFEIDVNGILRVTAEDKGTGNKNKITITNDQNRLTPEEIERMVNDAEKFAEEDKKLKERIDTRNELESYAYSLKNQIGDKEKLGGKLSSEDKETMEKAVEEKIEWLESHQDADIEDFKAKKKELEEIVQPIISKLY

[4] = biological target: the molecule itself; assay: SEC; analytical SEC, SEC-3 HPLC column, HKMC buffer (50 mM HEPES-KOH pH 7.4, 150 mM KCl, 10 mM MgCl2, 1 mM CaCl2), 25 °C; FICD at 20 µM, or 0.2-50 µM after 16 h at 25 °C (Figure S1D-E); approximate Kd of dimer to monomers from elution peak times
[5] = biological target: the molecule itself; assay: crystal structure; sitting drop vapour diffusion, FICD at 9 mg/ml in 10 mM Tris-HCl pH 8.0, 150 mM NaCl, 1 mM TCEP, ± 10 mM MgATP
[6] = biological target: the molecule itself; assay: AUC; fluorescence-detected sedimentation velocity, Oregon Green-labelled FICD 1.6 µM to 31 pM, 20 °C, 50 mM HEPES-KOH pH 7.4, 150 mM KCl, 10 mM MgCl2, 1 mM CaCl2, 0.3 mM TCEP, 0.1% Tween-20, 0.15 mg/ml BSA; monomer-dimer fit (dimer to monomers)

binding result [1]: binds
fold increase in the dimer off rate with ATP (5 mM) against no nucleotide [2]: 3 fold
binding result [3]: binds
B1: FICD^H363A (aa 104-445) (domain or fragment, human, UniProt Q9BVA6 104-445, looked up)
chain: LEARAALNQALEMKRQGKREKAQKLFMHALKMDPDFVDALTEFGIFSEEDKDIIQADYLYTRALTISPYHEKALVNRDRTLPLVEEIDQRYFSIIDSKVKKVMSIPKGNSALRRVMEETYYHHIYHTVAIEGNTLTLSEIRHILETRYAVPGKSLEEQNEVIGMHAAMKYINTTLVSRIGSVTISDVLEIHRRVLGYVDPVEAGRFRTTQVLVGHHIPPHPQDVEKQMQEFVQWLNSEEAMNLHPVEFAALAHYKLVYIAPFIDGNGRTSRLLMNLILMQAGYPPITIRKEQRSDYYHVLEAANEGDVRPFIRFIAKCTETTLDTLLFATTEYSVALPEAQP
notes: human FICD (HYPE), aa 104-445; also called dFICD^H363A; source: E. coli T7 Express lysY/I^q, purified (Ni-NTA, on-column Ulp1 cleavage, anion exchange, SEC); not shown: His6, N-terminal, cleaved; Smt3, N-terminal, cleaved

B2: FICD^K256S (aa 104-445) (domain or fragment, human, UniProt Q9BVA6 104-445, looked up)
chain: B1 chain with K153S, A260H
notes: human FICD (HYPE), aa 104-445; also called Lys256Ser; dimer relay mutant; source: E. coli T7 Express lysY/I^q, purified (Ni-NTA, on-column Ulp1 cleavage, anion exchange, SEC); not shown: His6, N-terminal, cleaved; Smt3, N-terminal, cleaved
Kd [4]: < 400 nM

B3: FICD^C421S (aa 104-445) (domain or fragment, human, UniProt Q9BVA6 104-445, looked up)
chain: B1 chain with A260H, C318S
notes: human FICD (HYPE), aa 104-445; also called cysteine-free FICD^C421S; UK 2161; source: E. coli, purified by the protocol of the disulphide-linked dimers (Ni-NTA, oxidised glutathione, anion exchange, SEC); not shown: His6, N-terminal, cleaved; Smt3, N-terminal, cleaved
binding result [4]: binds

B4: FICD^K256A (aa 104-445) (domain or fragment, human, UniProt Q9BVA6 104-445, looked up)
chain: B1 chain with K153A, A260H
notes: human FICD (HYPE), aa 104-445; also called dimeric dimer relay mutant FICD^K256A; source: E. coli T7 Express lysY/I^q, purified (Ni-NTA, on-column Ulp1 cleavage, anion exchange, SEC); not shown: His6, N-terminal, cleaved; Smt3, N-terminal, cleaved
binding result [5]: binds

B5: non-oxidised FICD^A252C-C421S (aa 104-445) (domain or fragment, human, UniProt Q9BVA6 104-445, looked up)
chain: B1 chain with A149C, A260H, C318S
notes: human FICD (HYPE), aa 104-445; also called non-disulphide-bonded FICD^A252C-C421S; UK 2219; source: E. coli, purified; separate preparation not subjected to oxidation with glutathione; not shown: His6, N-terminal, cleaved; Smt3, N-terminal, cleaved
binding result [4]: binds

B6: wild-type FICD (aa 104-445) (domain or fragment, human, UniProt Q9BVA6 104-445, looked up)
chain: B1 chain with A260H
notes: human FICD (HYPE), aa 104-445; Dimer by SEC, AUC and crystal structure; also called HYPE; dFICD; source: E. coli T7 Express lysY/I^q, purified (Ni-NTA, on-column Ulp1 cleavage, anion exchange, SEC); not shown: His6, N-terminal, cleaved; Smt3, N-terminal, cleaved
binding result [4]: binds

B7: FICD^E242A (aa 104-445) (domain or fragment, human, UniProt Q9BVA6 104-445, looked up)
chain: B1 chain with E139A, A260H
notes: human FICD (HYPE), aa 104-445; also called dimer relay mutant; source: E. coli T7 Express lysY/I^q, purified (Ni-NTA, on-column Ulp1 cleavage, anion exchange, SEC); not shown: His6, N-terminal, cleaved; Smt3, N-terminal, cleaved
Kd [4]: < 400 nM

B8: FICD^G299S (aa 104-445) (domain or fragment, human, UniProt Q9BVA6 104-445, looked up)
chain: B1 chain with G196S, A260H
notes: human FICD (HYPE), aa 104-445; Partially monomeric; also called Gly299Ser; source: E. coli T7 Express lysY/I^q, purified (Ni-NTA, on-column Ulp1 cleavage, anion exchange, SEC); not shown: His6, N-terminal, cleaved; Smt3, N-terminal, cleaved
Kd [4]: 9500 nM

binding result [1]: binds
binding result [3]: binds
B9: FICD^L258D-H363A (aa 104-445) (domain or fragment, human, UniProt Q9BVA6 104-445, looked up)
chain: B1 chain with L155D
notes: human FICD (HYPE), aa 104-445; also called mFICD^H363A; source: E. coli T7 Express lysY/I^q, purified (Ni-NTA, on-column Ulp1 cleavage, anion exchange, SEC); not shown: His6, N-terminal, cleaved; Smt3, N-terminal, cleaved

B10: Oregon Green-labelled FICD^NC (domain or fragment, human)
chain: CLEARAALNQALEMKRQGKREKAQKLFMHALKMDPDFVDALTEFGIFSEEDKDIIQADYLYTRALTISPYHEKALVNRDRTLPLVEEIDQRYFSIIDSKVKKVMSIPKGNSALRRVMEETYYHHIYHTVAIEGNTLTLSEIRHILETRYAVPGKSLEEQNEVIGMHAAMKYINTTLVSRIGSVTISDVLEIHRRVLGYVDPVEAGRFRTTQVLVGHHIPPHPQDVEKQMQEFVQWLNSEEAMNLHPVEFAALAHYKLVYIHPFIDGNGRTSRLLMNLILMQAGYPPITIRKEQRSDYYHVLEAANEGDVRPFIRFIAKCTETTLDTLLFATTEYSVALPEAQP
modifications: Oregon Green 488 on the added N-terminal cysteine (labelling efficiency 74%)
notes: N-terminal cysteine added for site-specific labelling, told in words only; human FICD (HYPE), aa 104-445 (purified 'as described above'); also called UK 2339; wild-type (red); source: E. coli, purified (Ni-NTA, anion exchange, SEC), labelled with Oregon Green 488-iodoacetamide; not shown: His6, N-terminal, cleaved; Smt3, N-terminal, cleaved
Kd [6]: 1.2 nM
